Experiment [1] addresses T7-bio: coliphage T7 major capsid protein gp10A fused to the 15-amino acid biotinylation peptide, biotinylated in vivo by the host BLP (Enterobacteria phage T7). As to the kind of experiment: flow cytometry of carrier E. coli cells with phage at MOI 5 and streptavidin-QDs.
Experiment [2] has the same target. Put plainly: TEM of phage adsorbed to carrier E. coli cells, streptavidin-coated QDs in excess.

Chain of T7-bio: coliphage T7 major capsid protein gp10A fused to the 15-amino acid biotinylation peptide, biotinylated in vivo by the host BLP (Enterobacteria phage T7) (P19727 1-349, tags or fused parts left off): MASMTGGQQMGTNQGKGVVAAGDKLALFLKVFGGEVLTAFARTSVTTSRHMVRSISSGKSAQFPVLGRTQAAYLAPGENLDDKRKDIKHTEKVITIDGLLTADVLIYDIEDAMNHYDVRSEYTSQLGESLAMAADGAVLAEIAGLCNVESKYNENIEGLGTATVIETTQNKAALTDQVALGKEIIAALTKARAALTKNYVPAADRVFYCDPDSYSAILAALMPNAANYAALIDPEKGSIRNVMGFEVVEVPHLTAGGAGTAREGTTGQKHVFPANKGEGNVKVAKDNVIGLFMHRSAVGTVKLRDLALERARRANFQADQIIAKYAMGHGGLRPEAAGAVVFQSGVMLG

Regarding “streptavidin coated QD (QD 605), Quantum Dot Corporation (from UniProt P22629 37-163)”, in experiment [1], the fluorescence against the T7-myc control (orders of magnitude) is 2 and the percent of phage-bound cells with fluorescence above the threshold (P2) turned out to be 94%. Besides, in experiment [2], the percent of T7-bio phage with no QDs bound is 7% and the percent of the total peptides displayed that carry a QD came to 0.5%.

The values are drawn from patent US20110086338A1.
